According to paper PMC6356446:

Target: c-Met (human (endogenous in HCC413)), P08581
Assay: flow cytometry on cells; HCC413 cells treated with EGF-FITC or HGF-FITC alone or with unlabeled LZ-8 for 15 min; fixed; relative mean fluorescence intensity
Conditions: remark: other sources report otherwise

Sequence of c-Met (human (endogenous in HCC413)), P08581 (P08581 25-1390): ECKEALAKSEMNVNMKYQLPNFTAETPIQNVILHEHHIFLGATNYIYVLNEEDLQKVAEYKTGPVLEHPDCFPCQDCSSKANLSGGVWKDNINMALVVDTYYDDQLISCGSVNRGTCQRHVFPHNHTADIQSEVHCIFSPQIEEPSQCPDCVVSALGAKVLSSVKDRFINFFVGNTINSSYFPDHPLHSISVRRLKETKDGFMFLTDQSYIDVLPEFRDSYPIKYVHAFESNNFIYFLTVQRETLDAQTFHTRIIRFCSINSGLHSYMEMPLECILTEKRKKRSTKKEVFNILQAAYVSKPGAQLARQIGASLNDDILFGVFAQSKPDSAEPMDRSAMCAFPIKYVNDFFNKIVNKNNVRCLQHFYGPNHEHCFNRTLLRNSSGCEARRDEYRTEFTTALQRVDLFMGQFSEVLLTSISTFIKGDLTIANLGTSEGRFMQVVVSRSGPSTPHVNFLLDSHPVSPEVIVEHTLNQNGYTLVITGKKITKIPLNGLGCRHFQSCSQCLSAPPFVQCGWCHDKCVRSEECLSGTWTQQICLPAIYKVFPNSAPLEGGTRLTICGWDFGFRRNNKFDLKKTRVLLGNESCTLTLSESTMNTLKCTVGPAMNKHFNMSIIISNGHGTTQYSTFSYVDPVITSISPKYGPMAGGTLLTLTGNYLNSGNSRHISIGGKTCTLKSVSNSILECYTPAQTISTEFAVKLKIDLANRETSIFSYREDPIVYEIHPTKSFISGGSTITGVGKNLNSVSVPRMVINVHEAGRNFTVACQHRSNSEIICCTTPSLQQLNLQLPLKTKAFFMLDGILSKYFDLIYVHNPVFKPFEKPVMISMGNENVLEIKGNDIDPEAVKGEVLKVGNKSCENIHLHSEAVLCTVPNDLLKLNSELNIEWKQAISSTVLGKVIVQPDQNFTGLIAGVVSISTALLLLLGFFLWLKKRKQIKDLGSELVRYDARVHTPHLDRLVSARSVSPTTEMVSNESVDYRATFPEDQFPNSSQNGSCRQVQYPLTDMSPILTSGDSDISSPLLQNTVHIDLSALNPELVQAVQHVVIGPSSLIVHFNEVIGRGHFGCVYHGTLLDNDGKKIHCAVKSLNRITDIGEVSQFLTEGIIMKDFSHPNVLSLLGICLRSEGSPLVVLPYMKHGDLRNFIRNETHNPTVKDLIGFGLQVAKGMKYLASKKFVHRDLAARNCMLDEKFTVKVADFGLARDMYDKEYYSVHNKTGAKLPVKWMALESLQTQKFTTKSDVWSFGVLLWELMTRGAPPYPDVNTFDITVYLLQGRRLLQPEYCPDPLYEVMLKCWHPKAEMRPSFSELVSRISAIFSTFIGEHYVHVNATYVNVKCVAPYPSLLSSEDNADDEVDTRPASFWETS

percent suppression of HGF-FITC binding on the cell surface: 30%
B1: Ling-Zhi-8, P14945 1-111 (natural protein)
chain: MSDTALIFRLAWDVKKLSFDYTPNWGRGNPNNFIDTVTFPKVLTDKAYTYRVAVSGRNLGVKPSYAVESDGSQKVNFLEYNSGYGIADTNTIQVFVVDPDTNNDFIIAQWN
modifications: here or on the partner: N-glycans (sites not given)
